From publication PMC6346709
Changes are numbered by the printed parent chain. Names and notes keep the numbering of the source.

What was measured:
[1] = target: Recombinant CbpF from Fn ATCC 25586 (group I), passenger domain (UniProt Q8RIS0); experiment: ELISA; conditions: 3 pmol CbpF; 15 fmol CEACAM1-3-Fc mutant; developed for 5 hrs at 37°C; parent: est. 0.43; read off a plot
[2] = target: Recombinant CbpF from clinical strain 2B3 (group II), passenger domain, pOPINE construct; experiment: ELISA; conditions: 3 pmol CbpF; 15 fmol CEACAM1-3-Fc mutant; developed for 5 hrs at 37°C; parent: est. 0.66; read off a plot
[3] = target: Recombinant CbpF from Fn ATCC 25586 (group I), passenger domain (Fusobacterium nucleatum ATCC 25586) (UniProt Q8RIS0); experiment: ELISA; purified CbpFI and CbpFII (3 pmol) immobilised on plates; 1 pmol of each CEACAM-Fc variant; anti-human secondary antibody
[4] = target: CEACAM binding protein of Fusobacterium (CbpF) of F. vincentii ATCC 49256, FNV1729 (Fusobacterium vincentii ATCC 49256 (endogenous)); experiment: migration on SDS-PAGE and Western blot; native CbpF in lysate or co-precipitate runs at ~150 kDa against ~50 kDa predicted for the mature chain; Fn lysate gives a ~50 kDa band after 70% formic acid
[5] = target: CEACAM binding protein of Fusobacterium (CbpF) of F. nucleatum ATCC 25586, FN1499 (Fusobacterium nucleatum ATCC 25586 (endogenous)); experiment: as above
[6] = target: T1, Recombinant CbpF from Fn ATCC 25586 (group I), passenger domain, Q8RIS0; experiment: ELISA; conditions: chain shown with the change; 3 pmol CbpF; 15 fmol CEACAM1-3-Fc mutant; developed for 5 hrs at 37°C; parent: est. 0.43; read off a plot
T1 chain: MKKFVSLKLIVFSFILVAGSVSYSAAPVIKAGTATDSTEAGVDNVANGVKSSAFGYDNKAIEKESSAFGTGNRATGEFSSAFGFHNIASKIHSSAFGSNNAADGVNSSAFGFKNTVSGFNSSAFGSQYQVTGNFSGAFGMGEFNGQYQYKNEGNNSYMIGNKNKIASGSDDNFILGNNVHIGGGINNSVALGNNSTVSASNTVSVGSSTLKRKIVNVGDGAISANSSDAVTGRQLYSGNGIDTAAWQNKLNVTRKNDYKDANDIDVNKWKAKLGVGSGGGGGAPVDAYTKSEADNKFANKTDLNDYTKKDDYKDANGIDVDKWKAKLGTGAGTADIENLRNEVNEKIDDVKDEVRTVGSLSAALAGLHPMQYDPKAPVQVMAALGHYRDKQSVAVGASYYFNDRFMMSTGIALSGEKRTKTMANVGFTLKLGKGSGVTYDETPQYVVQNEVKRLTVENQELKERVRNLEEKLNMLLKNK

[7] = target: Recombinant CbpF from clinical isolate 2B3 (protein of Figure 8, dot blot and Figure S9); experiment: ELISA; conditions: chain shown with the change; read at 2 µg.ml-1 of the Fc construct (highest point of the titration); recombinant CbpF immobilised; parent: est. 1.9; read off a plot

CEACAM1-3-Fc (containing N-A1-B1 domains) I91A
response [1]: 0.02 A405 | response [2]: 0.01 A405

CEACAM1-3-Fc (containing N-A1-B1 domains) F29R
response [1]: 0.013 A405 | response [2]: 0.013 A405

CEACAM1-3-Fc (containing N-A1-B1 domains) F29I
response [1]: 0.012 A405 | response [2]: 0.017 A405

CEACAM1-3-Fc (containing N-A1-B1 domains) Q44L
response [1]: 0.027 A405 | response [2]: 0.021 A405

CEACAM1-Fc, comprising all extracellular CEACAM1 domains fused to the human immunoglobulin G (IgG) Fc domain (from UniProt P13688 35-428) (Fc fusion)
binding relative to group II CbpF [3]: 75%

CEA-Fc (from UniProt P06731 35-685) (Fc fusion)
binding relative to group II CbpF [3]: 50%

CEACAM1-3-Fc (containing N-A1-B1 domains) I91G
response [1]: 0.066 A405 | response [2]: 0.017 A405

CEACAM1-3-Fc (containing N-A1-B1 domains) Y34S
response [1]: 0.017 A405 | response [2]: 0.012 A405

CEACAM1-3-Fc (containing N-A1-B1 domains) V96A
response [2]: 0.87 A405

CEACAM1-3-Fc (containing N-A1-B1 domains) Q89N
response [2]: 0.17 A405

CEACAM binding protein of Fusobacterium (CbpF) of F. vincentii ATCC 49256, FNV1729 (natural protein)
stoichiometry N [4]: 3

CEACAM1-3-Fc (containing N-A1-B1 domains) Y34F
response [1]: 0.017 A405 | response [2]: 0.013 A405

CEACAM1-3-Fc (containing N-A1-B1 domains) G47L
response [1]: 0.007 A405 | response [2]: 0.008 A405

CEACAM1-3-Fc (containing N-A1-B1 domains) Q44R
response [1]: 0.02 A405 | response [2]: 0.013 A405

CEACAM binding protein of Fusobacterium (CbpF) of F. nucleatum ATCC 25586, FN1499 (natural protein)
stoichiometry N [5]: 3

CEACAM1-3-Fc (containing N-A1-B1 domains) F29G
response [1]: 0.012 A405 | response [2]: 0.012 A405

CEACAM1-3-Fc (containing N-A1-B1 domains) I91L
response [1]: 0.022 A405 | response [2]: 0.006 A405

CEACAM1-3-Fc (containing N-A1-B1 domains) F29Y
response [1]: 0.017 A405 | response [2]: 0.082 A405

CEACAM1-3-Fc (containing N-A1-B1 domains) Q44E
response [1]: 0.02 A405 | response [2]: 0.017 A405

CEACAM1-3-Fc (containing N-A1-B1 domains) Y34A
response [1]: 0.021 A405 | response [2]: 0.043 A405

B1: CEACAM1-3-Fc (containing N-A1-B1 domains) V96A (protein)
chain: QLTTESMPFNVAEGKEVLLLVHNLPQQLFGYSWYKGERVDGNRQIVGYAIGTQQATPGPANSGRETIYPNASLLIQNVTQNDTGFYTLQVIKSDLANEEATGQFHVYPELPKPSISSNNSNPVEDKDAVAFTCEPETQDTTYLWWINNQSLPVSPRLQLSNGNRTLTLLSVTRNDTGPYECEIQNPVSANRSDPVTLNVTYGPDTPTISPSDTYYRPGANLSLSCYAASNPPAQYSWLINGTFQQSTQELFIPNITVNNSGSYTCHANNSVTGCNRTTVKTIIVTGK
response [6]: 0.4 A405

B2: CEACAM1-3-Fc (containing N-A1-B1 domains) Q89N (protein)
chain: B1 chain with Q89N, A96V
response [6]: 0.024 A405

B3: CEACAM1-Fc, comprising all extracellular CEACAM1 domains fused to the human immunoglobulin G (IgG) Fc domain, P13688 I91A (protein)
chain: QLTTESMPFNVAEGKEVLLLVHNLPQQLFGYSWYKGERVDGNRQIVGYAIGTQQATPGPANSGRETIYPNASLLIQNVTQNDTGFYTLQVAKSDLVNEEATGQFHVYPELPKPSISSNNSNPVEDKDAVAFTCEPETQDTTYLWWINNQSLPVSPRLQLSNGNRTLTLLSVTRNDTGPYECEIQNPVSANRSDPVTLNVTYGPDTPTISPSDTYYRPGANLSLSCYAASNPPAQYSWLINGTFQQSTQELFIPNITVNNSGSYTCHANNSVTGCNRTTVKTIIVTELSPVVAKPQIKASKTTVTGDKDSVNLTCSTNDTGISIRWFFKNQSLPSSERMKLSQGNTTLSINPVKREDAGTYWCEVFNPISKNQSDPIMLNVNYNALPQENGLSPG
response [7]: 0 A405
